T1: Zip2(499-704);Spo16 (Saccharomyces cerevisiae;Saccharomyces …, UniProt P53061;P17122 499-704;1-198, |)
T1 sequence 1: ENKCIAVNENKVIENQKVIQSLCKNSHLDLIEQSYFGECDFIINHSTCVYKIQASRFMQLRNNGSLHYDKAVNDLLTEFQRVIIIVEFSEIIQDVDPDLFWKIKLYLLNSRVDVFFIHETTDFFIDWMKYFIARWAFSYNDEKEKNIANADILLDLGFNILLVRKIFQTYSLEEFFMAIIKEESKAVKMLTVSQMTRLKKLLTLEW
T1 sequence 2: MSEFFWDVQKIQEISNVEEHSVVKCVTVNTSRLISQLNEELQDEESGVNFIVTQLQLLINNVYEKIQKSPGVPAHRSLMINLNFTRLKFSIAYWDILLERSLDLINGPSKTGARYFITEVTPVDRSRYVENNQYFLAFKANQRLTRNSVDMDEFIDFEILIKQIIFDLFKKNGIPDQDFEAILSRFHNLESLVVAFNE


What was measured:
Zip2(499-704);Spo16 [1] = target: T1, Zip2(499-704);Spo16; test: EMSA
Zip2(499-704);Spo16 [2] = target: T1, Zip2(499-704);Spo16; test: EMSA; remark: listed apart in the source
Zip2(499-704);Spo16 [3] = target: T1, Zip2(499-704);Spo16; test: ITC

Binder	Kd (Zip2(499-704);Spo16 [1])	Kd (Zip2(499-704);Spo16 [2])	Kd (Zip2(499-704);Spo16 [3])
40-bp dsDNA (dsDNA) DNA 1: CCTTTCGAAGACTCATCACGGAGAGCAGACATCATCTGGC DNA 2: GCCAGATGATGTCTGCTCTCCGTGATGAGTCTTCGAAAGG	14 µM		
5'-overhang DNA (mixed) DNA 1: CCTTTCGAAGACTCATCACGGAGAGCAGACATCATCTGGC DNA 2: GCCAGATGATGTCTGCTCTC	9 µM		
Holliday Junction (HJ) (structured_DNA) DNA 1: CCTTTCGAAGACTCATCACGGAGAGCAGACATCATCTGGC DNA 2: ATATATGATTCTAATAAGATCGTGATGAGTCTTCGAAAGG DNA 3: GCCAGATGATGTCTGCTCTCGTCGTAATGTAAGTGTATGC DNA 4: GCATACACTTACATTACGACATCTTATTAGAATCATATAT		5 µM	~1 µM
3'-overhang DNA (mixed) DNA 1: CCTTTCGAAGACTCATCACGGAGAGCAGACATCATCTGGC DNA 2: CGTGATGAGTCTTCGAAAGG	17 µM		

Reference: PMC6411835
